From patent US7807381B2, “Methods for assessing CDK5 activation and function” (The Board of Regents of the University of Texas System, priority 2007, dated 2010)

Columns and labels:
[1] = target: Cdk5 (Homo sapiens, UniProt Q00535); experiment: in vitro phosphorylation reactions with Cdk5 and test substrate protein phosphatase inhibitor-1; format: biochemical; settings: preliminary data
Protocol: (§1) FIGS. 5A-B—NMDA receptor activation inhibits Cdk5 and the cytoplasmic domain is a Cdk5 inhibitor. (FIG. 5A) Reduction in phosphorylation of three Cdk5 sites by NMDA. Quantitative immunoblot analyses is shown of acute striatal slices incubated with NMDA for the doses and times indicated, n=3-12. *p<0.05; **p<0.01 vs. control, one-way ANOVA with Dunnett's multiple comparison test. (FIG. 5B) Inhibition of Cdk5-dependent phosphorylation of inhibitor-1 by NR2B as assessed by time-course (top), dose-response (middle), and Line-Weaver Burke (bottom) analyses of in vitro phosphorylation reactions conducted in the presence of the indicated inhibitors or control proteins.
To determine if these observations were related, the inventors conducted in vitro phosphorylation reactions with Cdk5 and a test substrate, protein phosphatase inhibitor-1. […] Kinetic analysis confirmed that the NR2B receptor cytoplasmic domain functions as a potent and selective inhibitor of Cdk5 (IC50˜4 μM) and indicated a noncompetitive inhibition mechanism. […]
Cdk5 phosphorylation activity assays may generally comprise ^32P-incoporation into substrates as determined by phosphorimager analysis. Alternatively, phosphorylation may be detected by either Western blot or ELISA using a control Cdk5 substrate and a phosphorylation state-specific antibody to a Cdk5 phosphorylation site on the substrate. […]

[2] = tested on: Cdk5 sites; experiment: Quantitative immunoblot of Cdk5-site phosphorylation in acute striatal slices incubated with NMDA; format: cell-based; settings: NMDA at doses and times indicated, n=3-12
Protocol: as §1
To determine if these observations were related, the inventors conducted in vitro phosphorylation reactions with Cdk5 and a test substrate, protein phosphatase inhibitor-1. […] Kinetic analysis confirmed that the NR2B receptor cytoplasmic domain functions as a potent and selective inhibitor of Cdk5 (IC50˜4 μM) and indicated a noncompetitive inhibition mechanism. […] These new data further confirm that NR2B can block Cdk5 activity, and further, that these interactions may be targeted for disruption so that Cdk5 may be uncoupled from NMDA receptors.

Chain of Cdk5 (Q00535 whole entry, species assumed, the tested form may be a part): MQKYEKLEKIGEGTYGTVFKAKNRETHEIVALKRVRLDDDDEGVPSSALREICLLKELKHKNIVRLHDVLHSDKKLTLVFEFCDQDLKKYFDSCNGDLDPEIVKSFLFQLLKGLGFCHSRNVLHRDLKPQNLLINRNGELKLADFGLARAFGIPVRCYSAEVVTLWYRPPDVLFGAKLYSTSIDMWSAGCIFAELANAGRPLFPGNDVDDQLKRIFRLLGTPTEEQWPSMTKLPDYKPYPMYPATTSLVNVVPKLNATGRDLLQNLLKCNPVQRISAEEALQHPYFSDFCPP

| inhibition of Cdk5 (qualitative) [1] | Compound | phosphorylation of three Cdk5 sites [2] |
| --- | --- | --- |
| effective inhibitor | peptide encompassing amino acid residues 1101-1130 of NR2B: a peptide encompassing amino acid residues 1101-1130 of NR2B (EFDEIELAYRRRPPRSPDHKRYFRDKEGLR; UniProt Q13224 1101-1130, looked up, fragment) |  |
|  | CN[C@H](CC(=O)O)C(=O)O [NMDA] | Reduction |
